Among the data in patent US20260070974A1 (NONA BIOSCIENCES SUZHOU, published 2026) are Kd, koff and kon values, retold here.

To fix the notation:
T1: human Siglec-15 ECD-his protein (Acrobiosystems, Cat #: SG5-H52H3) (human, UniProt Q6ZMC9 20-263)
T1 construct: Bought protein; only its extracellular domain stood in the assay; also called human Siglec-15 protein; recombinant human Siglec-15 protein; not shown: his tag
T1 sequence: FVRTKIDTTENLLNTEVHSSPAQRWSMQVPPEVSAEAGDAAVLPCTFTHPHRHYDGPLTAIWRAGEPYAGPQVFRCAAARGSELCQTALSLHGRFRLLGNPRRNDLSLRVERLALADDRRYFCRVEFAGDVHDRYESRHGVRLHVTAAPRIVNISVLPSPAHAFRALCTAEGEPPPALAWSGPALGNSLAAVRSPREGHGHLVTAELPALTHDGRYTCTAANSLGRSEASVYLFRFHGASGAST

B1: PR301285 (antibody, human IgG1, kappa, V domains shown)
VH: QVQLQESGPGLVKPSETLSLTCTVSGGSMISYYWSWLRQPPGKGLEWIGYIYYSGNTNYNPSLKSRITIAVDTSKNQFSLKLNSVTAADTAVYYCARERELHPYYFDYWGQGTLVTVSS
VL: DIQLTQSPSFLSASVGDRVTITCRASQGIDNYLAWYQQKPGKAPKVLIYAASTLQSGVPSRFSGSGSGTEFTLTISSLQPEDFATYYCQQLNSYPLTFGGGTKVEIKR
B2: PR301289 (antibody, human IgG1, kappa, V domains shown)
VH: QVQLVQSGAEVKKPGASVKVSCRASGYTFTSYDINWVRQATGQGLEWMGWMNPHSGDTGYAQNFQGRVTMTWNTSISTAYMELSSLRSEDTAVYYCARRRVGVYYYGMDVWGQGTTVTVSS
VL: ENVLTQSPGTLSLSPGERATLSCRASQSVSSSYFGWYQQKPGQAPRLLIYGASSRATGIPDRFSGSGSGTDFTLTISRLEPEDFAVYYCQQYGSSPITFGQGTRLEIKR
notes: Parent of the PTM variants PR301289-1 and -2
B3: PR300066 (Tab) (antibody, human IgG1, kappa, V domains shown)
VH: QVQLQQPGAELVKPGASVKMSCKASGYTFTSYWITWVIQRPGQGLEWIGDIYCGSDTMHYNEKFKNKATLTVDTSSSTAYMQLSSLTSEDSAVYYCARWWDYGSSYDYFDYWGQGTTLTVSS
VL: DIKMTQSPSSMYASLGERVTITCKASQDINSYLSWFQQKPGKSPKTLIYRANRLVDGVPSRFSGSGSGQDYSLTISSLEYEDMGIYYCLQYDEFPYTFGGGTKLEIKR
notes: variable region from clone 5G12 of WO 2018/057735A1, on human IgG1/kappa constant regions; also called 5G12
B4: PR301286 (antibody, human IgG1, kappa, V domains shown)
VH: QVQLVESGGGVVQPGKSLRLSCAASGFTFSSYGMHWVRQAPGKGLEWVAVIWIDGSNRYYAASVKGRFTISRDNSKNTLYLQMNSLRAEDTAVYYCTRGYGDYAYVMDVWGQGASVTVSS
VL: DIVMTQSPLSLPVTPGEPASISCRSSQSLLPGNGYNYLDWYLQKPGQSPQLLIYLGSNRASGVPDRFSGSGSGTDFTLKISRVEAEDVGIYYCMQALQSPLTFGGGTKVEIKR
notes: Parent of the PTM variants PR301286-1, -3, -5, -6, -7

Where “and” joins values, the source holds several entries; their conditions need not be identical. Identical values can stand only once.

The assay addresses T1, human Siglec-15 ECD-his protein …. Briefly: BLI (Octet RED96), antibody on AHC sensor, Siglec-15 ECD-his as analyte. On the procedure: Recombinant Human Siglec-15 Protein Affinity was determined using an Octet RED96 instrument (ForteBio) and an anti-human IgG Fc capture sensor (AHC biosensor, ForteBio, Cat #: 18-5060) according to the detailed procedures and methods provided by the manufacturer. Specifically, candidate antibodies were each diluted to a final concentration of 6 µg/mL and directly immobilized on AHC biosensors for kinetic measurements. The antigenic protein Siglec-15 ECD-his protein (Acrobiosystems, Cat #: SG5-H52H3) was diluted with 10× Kinetics buffer to 3 concentrations of 60 nM, 30 nM, and 15 nM separately and injected as the analyte for 120 s with a dissociation time of 400 s and then subjected to regeneration with 10 mM glycine HCl (pH 1.5) for 15 s. The association rate (kon) and dissociation rate (kdis) were calculated using a simple one-to-one Languir binding model (Octet Red96 data analysis software). The equilibrium dissociation constant (kD) was calculated as the ratio of kdis/kon.
(In general: Biolayer interferometry detects binding as a change in optical thickness at a sensor tip.)
A word on the Kd: it is the concentration at which binding is half-saturated. A low value points to tighter binding. By koff is commonly meant the first-order rate constant of dissociation. Low readings indicate slow dissociation, high ones fast dissociation. The term kon denotes a measure of how fast the partners come together. Read a low kon as slow association. Regarding B1, the Kd is below 0.001 nM, the koff was below 1e-07 s⁻¹ and the kon was 529000 M⁻¹ s⁻¹.
The corresponding values for B2 are 0.173 nM, 6.47e-05 s⁻¹ and 373000 M⁻¹ s⁻¹.
For the molecule B3, the Kd is 0.13 nM and 0.293 nM; the koff is 9.5e-05 s⁻¹ and 0.000182 s⁻¹; the kon is 730000 M⁻¹ s⁻¹ and 621000 M⁻¹ s⁻¹.
As to B4, the Kd is below 0.001 nM; the koff was below 1e-07 s⁻¹; the kon is 368000 M⁻¹ s⁻¹ and 292000 M⁻¹ s⁻¹.
